2 molecules from paper PMC4225485, “The PHD1 finger of KDM5B recognizes unmodified H3K4 during the demethylation of histone H3K4me2/3 by KDM5B” (Protein & Cell, 2014) can be followed below.

Test [1] deals with T1, KDM5B-PHD1-Y334A (Homo sapiens, UniProt Q9UGL1, Y334A).
T1 construct: PHDKDM5B (residues 306–360 aa); GST (N, cleaved yes); made in house
Briefly: ITC binding, PHD1 Y334A mutant. The note with it: Table S1, pH 7.5, 25°C. On the procedure: (§1) A similar PHDKDM5B construct was used for the sample required in the NMR experiments. ^13C- and ^15N-labeled PHDKDM5B were prepared in M9 medium. Site-directed mutagenesis was performed using a QuikChange site-directed mutagenesis kit (Stratagene Inc. La Jolla, California, U.S.A). All of the DNA constructs were sequenced, and the molecular weights of the recombinant proteins were verified by mass spectrometry (MALDI).
(§2) To investigate whether the PHD1KDM5B finger and its mutants interact with unmodified or methylated H3K4 or H3K4mutants, the binding affinities of PHD1KDM5B or its mutants to H3 peptides were studied. An ITC-200 microcalorimeter (GE Healthcare) was used with a buffer containing 20 mmol/L Tris, 150 mmol/L NaCl, and 1% Triton X-100, pH 7.5 at 25°C. The reference titration of small molecules in the buffer was subtracted from the experimental data, and the data were fitted using the Origin 7.0 (OriginLab Corporation) software.

The target in test [2] is T2, KDM5B-PHD1-V311A (Homo sapiens, UniProt Q9UGL1, V311A).
T2 construct: PHDKDM5B (residues 306–360 aa); GST (N, cleaved yes); made in house
Briefly: ITC binding, PHD1 V311A mutant. The note with it: Table S1, pH 7.5, 25°C. On the procedure:
as §1, §2

The target of test [3] is T3, KDM5B-PHD1-D322A (Homo sapiens, UniProt Q9UGL1, D322A).
T3 construct: PHDKDM5B (residues 306–360 aa); GST (N, cleaved yes); made in house
Briefly: ITC binding, PHD1 D322A mutant. The note with it: Table S1, pH 7.5, 25°C. The method, then:
as §1, §2

The target of test [4] is T4, KDM5B-PHD1-L309A (Homo sapiens, UniProt Q9UGL1, L309A).
T4 construct: PHDKDM5B (residues 306–360 aa); GST (N, cleaved yes); made in house
Kind of test: ITC binding, PHD1 L309A mutant. Conditions: Table S1, pH 7.5, 25°C. On the procedure: as §1, §2

The target of test [5] is T5, KDM5B-PHD1-D332A (Homo sapiens, UniProt Q9UGL1, D332A).
T5 construct: PHDKDM5B (residues 306–360 aa); GST (N, cleaved yes); made in house
Kind of test: ITC binding, PHD1 D332A mutant. The note with it: Table S1, pH 7.5, 25°C. On the procedure:
as §1, §2

Test [6] deals with T6, KDM5B-PHD1-D345A (Homo sapiens, UniProt Q9UGL1, D345A).
T6 construct: PHDKDM5B (residues 306–360 aa); GST (N, cleaved yes); made in house
Kind of test: ITC binding, PHD1 D345A mutant. The note with it: Table S1, pH 7.5, 25°C. The method, then:
as §1, §2

Another test has as its target T7, KDM5B-PHD1-W351A (Homo sapiens, UniProt Q9UGL1, W351A).
T7 construct: PHDKDM5B (residues 306–360 aa); GST (N, cleaved yes); made in house
Briefly: ITC binding, PHD1 W351A mutant. The method, then:
as §1, §2

For test [7], the target named is T8, KDM5B-PHD1-L324A (Homo sapiens, UniProt Q9UGL1, L324A).
T8 construct: PHDKDM5B (residues 306–360 aa); GST (N, cleaved yes); made in house
Briefly: ITC binding, PHD1 L324A mutant. The note with it: Table S1, pH 7.5, 25°C. The method, then:
as §1, §2

The target in the next test is T9, KDM5B-PHD1-L325A (Homo sapiens, UniProt Q9UGL1, L325A).
T9 construct: PHDKDM5B (residues 306–360 aa); GST (N, cleaved yes); made in house
T9 sequence (Q9UGL1 306-360 L325A): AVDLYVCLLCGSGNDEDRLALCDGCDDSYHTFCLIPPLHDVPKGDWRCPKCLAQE
Briefly: ITC binding, PHD1 L325A mutant. On the procedure:
as §1, §2

For test [8], the target named is T10, KDM5B-PHD1-S333A (Homo sapiens, UniProt Q9UGL1, S333A).
T10 construct: PHDKDM5B (residues 306–360 aa); GST (N, cleaved yes); made in house
Kind of test: ITC binding, PHD1 S333A mutant. Conditions: Table S1, pH 7.5, 25°C. On the procedure:
as §1, §2

Test [9] addresses T11, PHD1_(KDM5B) E321A mutant (UniProt Q9UGL1 306-360, E321A).
T11 construct: also called PHD1 E321A; source: recombinant from modified pGEX-6p-1, site-directed mutagenesis; not shown: GST, N-terminal, cleaved
T11 sequence (looked up): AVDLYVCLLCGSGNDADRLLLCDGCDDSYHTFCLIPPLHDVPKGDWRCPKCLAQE
Briefly: ITC; ITC-200, 20 mmol/L Tris, 150 mmol/L NaCl, 1% Triton X-100, pH 7.5, 25°C. Conditions: both partners purified. On the technique in general: Isothermal titration calorimetry measures the heat released or taken up as one component is titrated into another.

Test [10] has as its target T12, PHD1_(KDM5B) Y310A mutant (UniProt Q9UGL1 306-360, Y310A).
T12 construct: also called PHD1 Y310A; source: recombinant from modified pGEX-6p-1, site-directed mutagenesis; not shown: GST, N-terminal, cleaved
T12 sequence (looked up): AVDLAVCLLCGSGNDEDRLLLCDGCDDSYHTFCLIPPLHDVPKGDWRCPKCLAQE
Described as above. The note with it: both partners purified.

Test [11] concerns the target T13, PHD1_(KDM5B) L326A mutant (UniProt Q9UGL1 306-360, L326A).
T13 construct: also called PHD1 L326A; source: recombinant from modified pGEX-6p-1, site-directed mutagenesis; not shown: GST, N-terminal, cleaved
T13 sequence (looked up): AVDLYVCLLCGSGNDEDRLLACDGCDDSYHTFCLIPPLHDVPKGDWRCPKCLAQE
The test is described as above. The note with it: both partners purified.

Test [12] concerns the target T14, PHD1_(KDM5B) Y310F mutant (UniProt Q9UGL1 306-360, Y310F).
T14 construct: also called PHD1 Y310F; source: recombinant from modified pGEX-6p-1, site-directed mutagenesis; not shown: GST, N-terminal, cleaved
T14 sequence (looked up): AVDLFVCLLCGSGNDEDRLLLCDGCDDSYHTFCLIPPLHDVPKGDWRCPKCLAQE
The test is described as above. Conditions: both partners purified.

Test [13] has as its target T15, PHD1_(KDM5B) D308A mutant (UniProt Q9UGL1 306-360, D308A).
T15 construct: also called PHD1 D308A; source: recombinant from modified pGEX-6p-1, site-directed mutagenesis; not shown: GST, N-terminal, cleaved
T15 sequence (looked up): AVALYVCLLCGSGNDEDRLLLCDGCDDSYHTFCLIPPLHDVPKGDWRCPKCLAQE
Described as above. The note with it: both partners purified.

The target in test [14] is T16, PHD1 finger of KDM5B (residues 306-360) (UniProt Q9UGL1 306-360).
T16 construct: 15N- or 13C/15N-labelled (M9 medium) for the NMR experiments; GST removed with 3C protease; also called PHD1_(KDM5B); PHD_(KDM5B); source: recombinant from modified pGEX-6p-1, purified; preparation described in Guo et al., 2011; not shown: GST, N-terminal, cleaved
T16 sequence (looked up): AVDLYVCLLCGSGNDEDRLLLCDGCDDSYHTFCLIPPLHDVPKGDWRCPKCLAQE
The test is described as above. Conditions: both partners purified.

Test [15] addresses T17, PHD1_(KDM5B) D328A mutant (UniProt Q9UGL1 306-360, D328A).
T17 construct: also called PHD1 D328A; source: recombinant from modified pGEX-6p-1, site-directed mutagenesis; not shown: GST, N-terminal, cleaved
T17 sequence (looked up): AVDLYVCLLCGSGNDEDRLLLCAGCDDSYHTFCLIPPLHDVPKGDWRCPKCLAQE
Described as above. Conditions: both partners purified.

Test [16] has as its target T18, KDM5B-PHD1-L324A (Homo sapiens).
T18 chain: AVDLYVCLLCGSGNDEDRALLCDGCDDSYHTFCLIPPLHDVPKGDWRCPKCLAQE
Briefly: ITC.

The target in test [17] is T19, KDM5B-PHD1-D332A (Homo sapiens).
T19 chain: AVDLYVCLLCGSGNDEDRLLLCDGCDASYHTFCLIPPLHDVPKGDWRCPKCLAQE
Kind of test: ITC.

In test [18] the target is T20, KDM5B-PHD1-S333A (Homo sapiens).
T20 chain: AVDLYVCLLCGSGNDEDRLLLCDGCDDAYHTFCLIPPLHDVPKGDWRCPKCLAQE
Kind of test: ITC.

Test [19] concerns the target T21, KDM5B-PHD1-D345A (Homo sapiens).
T21 chain: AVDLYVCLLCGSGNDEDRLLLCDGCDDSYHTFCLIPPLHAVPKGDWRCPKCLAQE
Briefly: ITC.

Test [20] has as its target T22, KDM5B-PHD1-D322A (Homo sapiens).
T22 chain: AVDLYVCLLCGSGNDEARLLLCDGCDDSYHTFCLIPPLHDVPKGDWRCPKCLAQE
Kind of test: ITC.

Test [21] addresses T23, KDM5B-PHD1-Y334A (Homo sapiens).
T23 chain: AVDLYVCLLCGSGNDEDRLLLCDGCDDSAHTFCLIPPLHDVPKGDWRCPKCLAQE
Kind of test: ITC.

Test [22] deals with T24, KDM5B-PHD1-L309A (Homo sapiens).
T24 chain: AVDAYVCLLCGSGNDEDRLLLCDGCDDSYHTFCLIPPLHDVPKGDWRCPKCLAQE
Kind of test: ITC.

Test [23] has as its target T25, KDM5B-PHD1-V311A (Homo sapiens).
T25 chain: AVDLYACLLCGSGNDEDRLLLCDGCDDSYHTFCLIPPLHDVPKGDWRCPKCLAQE
Kind of test: ITC.

T7 sequence (Q9UGL1 306-360 W351A): as the sequence (Q9UGL1 306-360 L325A) above, with A20L, W46A counted along it

Regarding `C[C@H](N)C(=O)N[C@@H](CCCNC(=N)N)C(=O)N[C@H](C(=O)N[C@@H](CCCCN)C(=O)N[C@@H](CCC(N)=O)C(=O)N[C@H](C(=O)N[C@@H](C)C(=O)N[C@@H](CCCNC(=N)N)C(=O)N[C@@H](CCCCN)C(=O)N[C@@H](CO)C(=O)O)[C@@H](C)O)[C@@H](C)O` [H3K4me0], the Kd (as a rule, the concentration at which binding is half-saturated) on KDM5B-PHD1-Y334A [1] amounted to 12.6 ± 0.4 µM; on KDM5B-PHD1-V311A [2], 8.2 ± 0.3 µM; at KDM5B-PHD1-D322A [3], 10.7 ± 0.5 µM; on KDM5B-PHD1-L309A [4], 8.3 ± 0.5 µM; on KDM5B-PHD1-D332A [5] it was 11.3 ± 0.5 µM; at KDM5B-PHD1-D345A [6] it was 6.7 ± 0.3 µM. For the same molecule, the Kd is 15.3 ± 0.7 µM on KDM5B-PHD1-L324A [7] and 12.9 ± 0.5 µM at KDM5B-PHD1-S333A [8]. Besides, the binding affinity entry at KDM5B-PHD1-W351A and on KDM5B-PHD1-L325A was “non-detectable” throughout.

B1: unmodified H3K4 peptide (residues 1-10) (peptide)
peptide: ARTKQTARKS
notes: histone H3 N-terminal tail, residues 1-10; also called H3K4me0; H3K4me0 peptide; source: synthetic peptide, bought: GL Biochem Ltd. (Shanghai, China)
Take B1: the Kd in [9] worked out at 75.8 ± 5.7 µM; in [10], 28.1 ± 1.3 µM; in test [11], 14.1 ± 0.8 µM; in [12] it was 4.3 ± 0.2 µM; in test [13] it was 41.7 ± 2.2 µM; in test [14] it was 6.4 µM. Moreover, the Kd turned out to be 182 ± 21.9 µM in test [15]; 15.3 µM with KDM5B-PHD1-L324A [16]; 11.3 µM with KDM5B-PHD1-D332A [17]; 12.9 µM with KDM5B-PHD1-S333A [18]; 6.7 µM with KDM5B-PHD1-D345A [19]; 10.7 µM with KDM5B-PHD1-D322A [20]. In addition, the results for the Kd with KDM5B-PHD1-Y334A [21], in the test with KDM5B-PHD1-L309A [22] and with KDM5B-PHD1-V311A [23] were 12.6 µM, 8.3 µM and 8.2 µM, respectively.
